According to paper doi:10.1101/2020.12.15.422995:

Target: T1, Fur (PerR homolog), 17.4 kDa (Bacillus subtilis, UniProt P54574 1-149)
T1 sequence: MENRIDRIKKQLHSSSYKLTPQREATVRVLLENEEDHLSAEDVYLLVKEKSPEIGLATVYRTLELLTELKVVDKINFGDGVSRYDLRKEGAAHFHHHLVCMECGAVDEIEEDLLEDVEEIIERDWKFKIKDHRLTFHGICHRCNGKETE
Assay: EMSA

B1: 54-bp degenerate sloR promoter (Deg_sloR_CC1) (dsDNA)
DNA 1: CCTGATAGGATGATGGATAATTAAGGCTTTTATCCACTTTTTACTGACATTTTG
DNA 2: CAAAATGTCAGTAAAAAGTGGATAAAAGCCTTAATTATCCATCATCCTATCAGG
  binding signal: 63 % band shift at 60 nM Fur (relative to 400 nM)
